Results from patent US20060211022A1.

Biological target: NGFR/EPOR hybrid receptor NECD (NGFR/EPOR chimera D) on 32D/NECDsc-14 cells (human; mouse)
Assay: cell-based or functional assay

Sequence of NGF (P01138 122-241): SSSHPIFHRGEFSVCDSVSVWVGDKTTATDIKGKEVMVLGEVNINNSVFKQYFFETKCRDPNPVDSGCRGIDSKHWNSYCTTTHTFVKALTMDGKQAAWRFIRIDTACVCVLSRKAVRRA
Sequence of NGFR/EPOR hybrid receptor NECD (NGFR/EPOR chimera D) on 32D/NECDsc-14 cells (human; mouse) (chain, as listed by the source mutant limits assumed): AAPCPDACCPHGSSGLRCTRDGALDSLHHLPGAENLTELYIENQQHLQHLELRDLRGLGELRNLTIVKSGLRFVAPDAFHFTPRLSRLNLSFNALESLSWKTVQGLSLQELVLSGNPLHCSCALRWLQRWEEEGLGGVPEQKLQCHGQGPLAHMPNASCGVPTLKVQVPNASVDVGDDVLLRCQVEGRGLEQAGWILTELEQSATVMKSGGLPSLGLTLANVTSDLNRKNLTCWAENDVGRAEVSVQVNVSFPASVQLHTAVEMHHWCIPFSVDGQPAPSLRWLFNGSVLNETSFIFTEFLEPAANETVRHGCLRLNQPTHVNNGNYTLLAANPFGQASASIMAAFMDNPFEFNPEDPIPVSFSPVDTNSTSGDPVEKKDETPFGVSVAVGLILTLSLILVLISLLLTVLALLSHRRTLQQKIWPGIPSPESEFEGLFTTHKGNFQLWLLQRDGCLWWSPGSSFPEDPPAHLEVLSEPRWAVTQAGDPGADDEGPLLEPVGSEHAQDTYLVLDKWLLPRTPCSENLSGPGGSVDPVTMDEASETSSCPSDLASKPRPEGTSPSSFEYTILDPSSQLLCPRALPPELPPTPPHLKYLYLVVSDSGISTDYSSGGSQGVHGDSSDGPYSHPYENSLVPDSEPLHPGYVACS

Substance NGF (ligand) has an NGF dose response in serum matrix, 0.02 ng/mL NGF, 1% human serum of 947, an NGF dose response in serum matrix, 0.02 ng/mL NGF, 2% rat serum of 1190 and an NGF dose response in serum matrix, 0.02 ng/mL NGF, 5% cyno serum of 2180. It also gave an NGF dose response in serum matrix, 0.02 ng/mL NGF, no serum of 595, an NGF dose response in serum matrix, 0.07 ng/mL NGF, 1% human serum of 1480 and an NGF dose response in serum matrix, 0.07 ng/mL NGF, 2% rat serum of 3520. For the same substance, the NGF dose response in serum matrix, 0.07 ng/mL NGF, 5% cyno serum was 5760, the NGF dose response in serum matrix, 0.07 ng/mL NGF, no serum was 1390 and the NGF dose response in serum matrix, 0.21 ng/mL NGF, 1% human serum was 5830. For the same substance, the NGF dose response in serum matrix, 0.21 ng/mL NGF, 2% rat serum was 12000, the NGF dose response in serum matrix, 0.21 ng/mL NGF, 5% cyno serum was 15800 and the NGF dose response in serum matrix, 0.21 ng/mL NGF, no serum was 5420. For the same substance, the NGF dose response in serum matrix, 0.62 ng/mL NGF, 1% human serum was 13400, the NGF dose response in serum matrix, 0.62 ng/mL NGF, 2% rat serum was 29400 and the NGF dose response in serum matrix, 0.62 ng/mL NGF, 5% cyno serum was 32500. The NGF dose response in serum matrix, 0.62 ng/mL NGF, no serum was 17100, the NGF dose response in serum matrix, 1.85 ng/mL NGF, 1% human serum was 19500 and the NGF dose response in serum matrix, 1.85 ng/mL NGF, 2% rat serum was 37700. It also gave an NGF dose response in serum matrix, 1.85 ng/mL NGF, 5% cyno serum of 43100, an NGF dose response in serum matrix, 1.85 ng/mL NGF, no serum of 27400 and an NGF dose response in serum matrix, 5.56 ng/mL NGF, 1% human serum of 22200. The NGF dose response in serum matrix, 5.56 ng/mL NGF, 2% rat serum was 43400, the NGF dose response in serum matrix, 5.56 ng/mL NGF, 5% cyno serum was 52200 and the NGF dose response in serum matrix, 5.56 ng/mL NGF, no serum was 35200. The NGF dose response in serum matrix, 16.67 ng/mL NGF, 1% human serum was 24600, the NGF dose response in serum matrix, 16.67 ng/mL NGF, 2% rat serum was 42400 and the NGF dose response in serum matrix, 16.67 ng/mL NGF, 5% cyno serum was 51800. For the same substance, the NGF dose response in serum matrix, 16.67 ng/mL NGF, no serum was 39700, the NGF dose response in serum matrix, 50.00 ng/mL NGF, 1% human serum was 19700 and the NGF dose response in serum matrix, 50.00 ng/mL NGF, 2% rat serum was 46900. For the same substance, the NGF dose response in serum matrix, 50.00 ng/mL NGF, 5% cyno serum was 56400, the NGF dose response in serum matrix, 50.00 ng/mL NGF, no serum was 41000 and the NGF dose response in serum matrix, 150.00 ng/mL NGF, 1% human serum was 18600. The NGF dose response in serum matrix, 150.00 ng/mL NGF, 2% rat serum was 49500, the NGF dose response in serum matrix, 150.00 ng/mL NGF, 5% cyno serum was 62100 and the NGF dose response in serum matrix, 150.00 ng/mL NGF, no serum was 44100. The [3H]-thymidine counts, NECDsc-14 NGF-dependent, 0.02 ng/ml was 1960 counts, the [3H]-thymidine counts, NECDsc-14 NGF-dependent, 0.07 ng/ml was 4690 counts and the [3H]-thymidine counts, NECDsc-14 NGF-dependent, 0.21 ng/ml was 8030 counts. For the same substance, the [3H]-thymidine counts, NECDsc-14 NGF-dependent, 0.62 ng/ml was 16800 counts, the [3H]-thymidine counts, NECDsc-14 NGF-dependent, 1.85 ng/ml was 22400 counts and the [3H]-thymidine counts, NECDsc-14 NGF-dependent, 5.56 ng/ml was 24200 counts. It also gave a [3H]-thymidine counts, NECDsc-14 NGF-dependent, 16.67 ng/ml of 22900 counts, a [3H]-thymidine counts, NECDsc-14 NGF-dependent, 50.00 ng/ml of 21600 counts and a [3H]-thymidine counts, NECDsc-14 NGF-dependent, 150.00 ng/ml of 20900 counts.
